Measured values from US20230355734A1 (VIRGINIA COMMONWEALTH UNIVERSITY, published 2023).

Tests used:
[1] = biological target: T1, human Factor H (human, UniProt P08603 19-1231); assay: ELISA, immobilized recombinant protein, FH in solution
T1 construct: Purified human FH bought from CompTech; added in solution at 10 ug/mL in the ELISA and 40 ug/mL in the cleavage assay; also called FH; human FH

[2] = biological target: T1, human Factor H; assay: ELISA, immobilized recombinant protein, human FH 10 ug/mL

T1 sequence (P08603 19-1231 limits assumed): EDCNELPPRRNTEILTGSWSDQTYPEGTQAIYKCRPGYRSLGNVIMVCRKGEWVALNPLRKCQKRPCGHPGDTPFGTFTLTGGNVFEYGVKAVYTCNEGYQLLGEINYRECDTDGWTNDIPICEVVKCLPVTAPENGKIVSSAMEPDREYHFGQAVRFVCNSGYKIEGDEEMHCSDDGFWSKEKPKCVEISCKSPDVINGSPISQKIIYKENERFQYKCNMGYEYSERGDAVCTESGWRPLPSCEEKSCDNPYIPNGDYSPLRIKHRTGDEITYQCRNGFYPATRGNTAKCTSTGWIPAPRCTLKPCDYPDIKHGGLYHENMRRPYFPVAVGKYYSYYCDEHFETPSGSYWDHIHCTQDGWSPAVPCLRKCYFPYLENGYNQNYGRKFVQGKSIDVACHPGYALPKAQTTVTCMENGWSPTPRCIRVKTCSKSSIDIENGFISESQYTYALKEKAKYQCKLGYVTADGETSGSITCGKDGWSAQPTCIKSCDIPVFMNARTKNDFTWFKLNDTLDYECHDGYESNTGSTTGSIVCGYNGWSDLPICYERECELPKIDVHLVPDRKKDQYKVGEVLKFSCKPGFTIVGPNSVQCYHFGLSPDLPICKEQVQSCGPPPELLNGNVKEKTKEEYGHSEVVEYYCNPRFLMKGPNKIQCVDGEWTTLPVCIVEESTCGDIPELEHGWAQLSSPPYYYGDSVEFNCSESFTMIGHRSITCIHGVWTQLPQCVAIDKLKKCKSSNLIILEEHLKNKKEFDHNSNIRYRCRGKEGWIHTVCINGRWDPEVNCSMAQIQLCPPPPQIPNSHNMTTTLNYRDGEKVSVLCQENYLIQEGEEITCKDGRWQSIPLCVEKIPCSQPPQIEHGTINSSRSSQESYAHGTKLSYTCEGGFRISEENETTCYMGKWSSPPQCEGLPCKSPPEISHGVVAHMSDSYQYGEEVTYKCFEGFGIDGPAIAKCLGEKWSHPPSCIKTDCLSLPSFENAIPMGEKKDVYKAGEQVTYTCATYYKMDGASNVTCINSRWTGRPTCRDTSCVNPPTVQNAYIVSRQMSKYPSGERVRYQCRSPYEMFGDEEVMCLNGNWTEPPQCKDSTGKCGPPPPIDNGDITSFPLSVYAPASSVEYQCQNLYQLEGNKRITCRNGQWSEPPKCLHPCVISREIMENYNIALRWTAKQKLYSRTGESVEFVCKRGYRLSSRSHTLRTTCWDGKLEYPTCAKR

B1: FhbB-ch4 tetravalent chimeric (FhbB135405-FhbB2SP50-FhbB333521-FhbB335404, mutated) (other)
chain: TFKMNTAQKAHYEKFINALENALKTRHIPAGAVIDMLAEINTEALALDYQIVDKKPGTSIAQGTKAAALRKRFIPKKIKAFKMNTAQKAHYEAFIKVLEKAAERNPIDAQVVVEALGAVNIDALAKNLNYQVIDKKPGTDIATGTKAAELRKRFVPKKIKAFKMNTAQKAHYEAFISGLENAVKDNPMTAQNVKEGLDLANVGAAALNFKIVDKKAGTEIAKGTKAAELRKRFVPKKKAFKMNTAQNAHYEAFISGLERGAKDNPMLAQVVKAGLDLANDGAAALNYKIVDKKPGTDIAKGTKAAELRKRFIPKKIK
notes: purified on nickel; also called Fhb-ch4; not shown: N-terminal hexa-histidine tag from vector pET46-Ek LIC
B1: no binding (tested: 10 µg mL^-1 human FH) [1].

B2: FhbB3 of strain 33521, E45A or D58A site-directed mutant (receptor)
chain: FKMNTAQKAHYEAFISGLENAVKDNPMTAQNVKEGLDLANVGAAALNFKIVDKKAGTEIAKGTKAAELRKRFVPKKKA
notes: also called FhbB333521 mutant; not shown: N-terminal hexa-histidine tag from vector pET46-Ek LIC
B2: no binding (tested: 10 µg mL^-1 human FH) [1].

B3: FhbB2 of strain SP50, E45A or D58A site-directed mutant (receptor)
chain: FKMNTAQKAHYEAFIKVLEKAAERNPIDAQVVVEALGAVNIDALAKNLNYQVIDKKPGTDIATGTKAAELRKRFVPKKIKA
notes: also called FhbB2SP50 mutant; not shown: N-terminal hexa-histidine tag from vector pET46-Ek LIC
B3: no binding (tested: 10 µg mL^-1 human FH) [1].

B4: FhbB-ch5 pentavalent chimeric (FhbB135405-FhbB2SP50-FhbB333521-FhbB335404-FhbB3SP64, mutated) (other)
chain: TFKMNTAQKAHYEKFINALENALKTRHIPAGAVIDMLAEINTEALALDYQIVDKKPGTSIAQGTKAAALRKRFIPKKIKAFKMNTAQKAHYEAFIKVLEKAAERNPIDAQVVVEALGAVNIDALAKNLNYQVIDKKPGTDIATGTKAAELRKRFVPKKIKAFKMNTAQKAHYEAFISGLENAVKDNPMTAQNVKEGLDLANVGAAALNFKIVDKKAGTEIAKGTKAAELRKRFVPKKKAFKMNTAQNAHYEAFISGLERGAKDNPMLAQVVKAGLDLANDGAAALNYKIVDKKPGTDIAKGTKAAELRKRFIPKKIKTFKMNTAQKAHYEAFIADLERAAKDNPMPAHIVKAGLDAANAIAATLNFKIVDKKAGTEIAKGTKAAELRKRFVPKKK
notes: purified on nickel; not shown: N-terminal hexa-histidine tag from vector pET46-Ek LIC
B4: binds [2].

B5: FhbB3 of strain 35404, E45A or D58A site-directed mutant (receptor)
chain: FKMNTAQNAHYEAFISGLERGAKDNPMLAQVVKAGLDLANDGAAALNYKIVDKKPGTDIAKGTKAAELRKRFIPKKIKT
notes: also called FhbB335404 mutant; not shown: N-terminal hexa-histidine tag from vector pET46-Ek LIC
B5: no binding (tested: 10 µg mL^-1 human FH) [1].

B6: FhbB1 of strain 35405, E45A site-directed mutant (receptor)
chain: TFKMNTAQKAHYEKFINALENALKTRHIPAGAVIDMLAEINTEALALDYQIVDKKPGTSIAQGTKAAALRKRFIPKKIKA
notes: also called FhbB135405 mutant; not shown: N-terminal hexa-histidine tag from vector pET46-Ek LIC
B6: no binding (tested: 10 µg mL^-1 human FH) [1].

B7: FhbB3SP64E45A/D58A (receptor)
chain: FKMNTAQKAHYEAFIADLERAAKDNPMPAHIVKAGLDAANAIAATLNFKIVDKKAGTEIAKGTKAAELRKRFVPKKK
notes: also called FhbBSP64E45A/D58A; FhbB3SP64 mutant; not shown: N-terminal hexa-histidine tag from vector pET46-Ek LIC
B7: binds [2].
